The values that follow come from patent publication US20180222985A1, “ANTIBODIES AGAINST HUMAN CSF-1R FOR USE IN INDUCING LYMPHOCYTOSIS IN LYMPHOMAS OR LEUKEMIAS” (Hoffmann-La Roche Inc., priority 2015, published 2018).

Assay [1] deals with human wildtype CSF-1R (wt CSF-1R) (human, UniProt P07333 20-972). Description: cell-based or functional assay.
Assay [2] concerns the target human mutant CSF-1R L301S Y969F (human) (UniProt P07333). Description: cell-based or functional assay.
The next assay relates to MEC1 cells. Description: CLL xeno-transplantation system: MEC1 cells i.v. in Rag2−/−γc−/− mice. Type of assay: in vivo.
A further assay relates to PBMCs from CLL patients. Description: In vitro cultures and cell-depletion assays from CLL samples (PBMCs). Conditions: etanercept 10 μg/ml, 24 h; 3 out of 4 samples. Type of assay: cell-based, human.

Description for MEC1 cells: FIG. 4 Anti-leukemic effect of anti-CSF1R moAb in the CLL xeno-transplantation system. • (A-B-C-D-E) i.v. MEC1 challenged (day 0) Rag2^−/−γc^−/− mice were treated i.v. (day +11, +25) with 30 mg/Kg of anti-CSF1R moAb (n=3, white circles) or left untreated (n=4, black circles) and killed at day 27 (A). The mean value of the absolute number of CD11b+ F4/80+ cells gated on CD45+ in SP (B) and BM (C) is shown in graphs. The mean value of the absolute number of human CD19+ cells in the BM is shown in graph (D). The mean value of the absolute number of human CD19+ cells and of Ann-PI+ cells gated on hCD19+ cells in SP is shown in graphs (E). Data are from one representative experiment of three. Statistical analysis: *p<0.05, **p<0.01, Student's t test. (F-G-H-I) i.v. MEC1 challenged (day 0) Rag2^−/−γc^−/− mice were treated i.v. (day +11, +25) with 30 mg/Kg of anti-CSF1R moAb) (n=7, white circles) or left untreated (n=7, black circles) and killed at days 27 and 29, 48 h and 96 h after the last moAb injection (F). The mean value of the absolute number of human CD19+ cells and of Ann-PI+ cells gated on hCD19+ cells in SP at days 27, 29 is shown in graphs (G). […]
FIG. 5 Anti-leukemic effect and survival impact of anti-CSF1R moAb in the CLL xeno-transplantation system. • (A-B-C) i.v. MEC1 challenged (day 0) Rag2^−/−γc^−/− mice were treated i.v. (day +11, +25) with 30 mg/Kg of anti-CSF1R moAb (n=3, white circles) or left untreated (n=4, black circles) and killed at day 27 (A). […] Statistically significant differences were calculated using the Student t test. **p<0.01, ***p<0.001. (D-E) i.v. MEC1 challenged (day 0) Rag2^−/−γc^−/− mice were left untreated (n=10, black circles) or treated with: 30 mg/Kg i.v. of anti-CSF1R moAb (n=11, white circles; day +11, +25); or 30 mg/Kg i.p. of anti-CD20 moAb GA101 (n=10, blue circles; day +11, +25); or 30 mg/Kg i.p. of anti-CD20 moAb GA101 (day +11, +25)+30 mg/Kg i.v. of anti-CSF1R moAb (day +18, +32) (n=10, violet circles) and monitored for survival (D). […]
Description for PBMCs from CLL patients: Statistically significant differences were calculated using the Student t test. *p<0.05 • (C) hCD19+ CDS+ depletion after 24 h treatment (n=3) with 100 μM, 500 μM, 1000 μM of clodrolip, with (black bar) or without (white bar) etanercept (10 n/ml) was calculated by the following formula: 100−% remaining cells, where % remaining cells=(Absolute number in treated samples/Absolute number in untreated samples)×100. (*p<0.05), Student's t test. • (D) hCD19+ CDS+ depletion after 24 h treatment (n=3) with clodrolip 1000 μM, with (black bar) or without (white bar) blocking anti-TRAIL-R2 moAb (1 μg/ml) was calculated by the following formula: 100−% remaining cells, where % remaining cells=(Absolute number in treated samples/Absolute number in untreated samples)×100.
Fresh PBMCs from untreated CLL patients were seeded, as triplicates, at 3×10^6 cells/ml in culture medium and treated with clodrolip or PBS liposomes (100, 500, 1000 μM) for 30 min and 24 h, in presence or absence of etanercept (10 μg/ml), a TNF-α antagonist from Pfizer or anti-TRAIL-R2 (human, 1 μg/ml) moAb (HS201) from Adipogen AG. […] The specific percentage of remaining leukemic CD19+CD5+ or CD14+ cells in treated samples was calculated as (absolute number in treated samples/absolute number in control samples)×100. […]

Substance “goat polyclonal anti-CSF-1R antibody ab10676 (abcam)” came in with a wtCSF-1R IC30 (30 percent inhibition of cell viability, CellTiterGlo, 3D spheroid culture) in assay [1] of 14.2 µg/mL. In assay [2], this substance gave a Mutant CSF-1R IC30 (30 percent inhibition of cell viability, CellTiterGlo, 3D spheroid culture) greater than 20 µg/mL and a Mutant CSF-1R: inhibition of cell viability at 20 µg/ml of 0%.
In assay [1], “Anti CSF-1R SC 2-4A5 (Santa Cruz Biotechnology, US) (antibody)” showed a wtCSF-1R IC30 (30 percent inhibition of cell viability, CellTiterGlo, 3D spheroid culture) of 16.6 µg/mL. Also, the Mutant CSF-1R IC30 (30 percent inhibition of cell viability, CellTiterGlo, 3D spheroid culture) in assay [2] is 2.56 µg/mL.
Regarding “GA101: glycoengineered humanized B-Ly1 antibody BHH6-B-KV1 GE, type II anti-human CD20”, in the assay with MEC1 cells (30 mg/Kg each, single agents days +11, +25, combination GA101 days +11, +25 + anti-CSF1R days +18, +32), the “survival of mice, p vs untreated control (Log-Rank test)” value was found to be 0.006.
Take etanercept: the “effect on leukemic cell depletion induced by clodrolip (TNF blocked)” value in the assay on PBMCs from CLL patients was “reduced”. For the same substance, in the assay with MEC1 cells (etanercept 10 mg/Kg i.p. from day +10, CSF1R moAb 30 mg/Kg i.v. days +11, +25, day 29), the “effect on anti-leukemic effect of CSF1R moAb in the SP” value was “abrogated”. For the same substance, the “effect on clodrolip-induced leukemic cell depletion in the BM” value in the assay on MEC1 cells (etanercept 10 mg/Kg i.p. from day +10, clodrolip 60 μl i.v. days +11, +25, day 26) is “abated”.
